Measured values taken from the supplement of paper PMC9170038.

System: MS2 coat protein
Assay: apparent KD of MS2 coat protein; designed switch direction (-1 OFF switch, 1 ON switch): 1; higher = weaker reporter binding
How it was run: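 Apparent KD, taken as the median over clusters for each design, was obtained by curve-fitting normalised cluster fluorescence. Designed RNA switches had been transcribed on Illumina chips by stalled E. coli RNA polymerase and titrated with SNAP-549-labelled MS2 coat protein, doubling from 0.7 or 1.5 nM to 3 µM.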

[1] = Eterna round: R95, input ligand: FMN 200 uM
[2] = Eterna round: R95, input ligand: microRNA oligo, concentration not stated
[3] = Eterna round: R95, input ligand: none
[4] = input ligand: microRNA oligo, concentration not stated

Row | Sequence | apparent KD of MS2 coat protein [1] | apparent KD of MS2 coat protein [2] | apparent KD of MS2 coat protein [3] | apparent KD of MS2 coat protein (input ligand: FMN 200 uM) | apparent KD of MS2 coat protein [4] | apparent KD of MS2 coat protein (input ligand: none)
1 | AGUCCAGCCUGAGCUGGACAAAAGCAUGUACAUGAGGAUCACCCAUGUUCAUGUACAAGCUUUUUGCUCGUCUUGCC [salish99_208a_r3_107x] (puzzle: Sensor for hsa-mir-208a) | 0.634 µM | 0.0159 µM | 1.13 µM | – | – | –
2 | AGUCCAGCCUGAGCUGGACAAAUGCAAGUACAUGAGGAUCACCCAUGUUCAUGUACAAGCUUUUUGCUCGUCUUAAA [JL zipper 59] (Eterna round: R96, puzzle: Sensor for hsa-mir-208a) | – | – | – | 0.853 µM | 0.0213 µM | 0.931 µM
3 | AGUCCAGCCUGAGCUGGACAAUAGCAUGUACAUGAGGAUCACCCAUGUCAUGUACAAGCUUUUUGCUCGUCUUAAAA [JL zipper 48] (Eterna round: R96, puzzle: Sensor for hsa-mir-208a) | – | – | – | 0.163 µM | 0.0124 µM | 0.159 µM
4 | AGUCCAGCGAAAGCUGGACAAAAGCAUGUACAUGAGGAUCACCCAUGUUCAUGUACAAGCUUUUUGCUCGUUUUAAA [JL mod - D95 - 15] (puzzle: Sensor for hsa-mir-208a) | 0.59 µM | 0.0135 µM | 0.643 µM | – | – | –
5 | AUAAAACAUGAGGAUCACCCAUGUCAACAAAGUCGAGGAUAUGGGCAAAGAAAAUAAUAACCAGAAGGCGAAUAAU [salish99_ss1_r3_054] (puzzle: Same State 1) | 0.0426 µM | 0.389 µM | 0.445 µM | – | – | –
6 | AUAAAACAUGAGGAUCACCCAUGUCAACAAAGUCGAGGAUAUGGGCAAAUAAAAUAAGAACCAGAAGGCGAAUAAU [Teenbexe] (Eterna round: R96, puzzle: Same State 1) | – | – | – | 0.0421 µM | 0.207 µM | 0.273 µM
7 | AUAAAACAUGAGGAUCACCCAUGUCAACAAAGUCGAGGAUAUGGGCAAAUAAAAUAAGAACCAGAAGGCGAAUAAU [salish99_SS1_r3_001] (puzzle: Same State 1) | – | 0.233 µM | – | – | – | –
8 | AUAAAACAUGAGGAUCACCCAUGUCAACAAAGUCGAGGAUAUGGGCAAAUAAAAUAAGAACCAGAAGGCGAAUUAU [salish99_ss1_r3_036] (Eterna round: R96, puzzle: Same State 1) | – | – | – | 0.0368 µM | 0.185 µM | 0.247 µM
9 | AUAAAACAUGAGGAUCACCCAUGUCAACAAAGUCGAGGAUAUGGGCAAAUAAAAUAAGAACCAGAAGGCGAAUUAU [salish99_ss1_r3_036] (puzzle: Same State 1) | 0.0316 µM | 0.423 µM | 1.14 µM | – | – | –
10 | AUAAAACAUGAGGAUCACCCAUGUCAACAAAGUCGAGGAUAUGGGCAAAUAAAAUAAGAACUAGAAGGCGAAUAAU [salish99_ss1_r3_031] (puzzle: Same State 1) | 0.374 µM | 1.77 µM | 0.139 µM | – | – | –
11 | AUAAAACAUGAGGAUCACCCAUGUCAACAAAGUCGAGGAUAUGGGCAAAUAAAAUAAUAACCAGAAGGCGAAUAAU [salish99_ss1_r3_018] (puzzle: Same State 1) | 0.0639 µM | 0.232 µM | 0.546 µM | – | – | –
12 | AUAAAACAUGAGGAUCACCCAUGUCAACAAUGUCGAGGAUAUGGGCAAAUAAAAUAAGAACCAGAAGGCGAAUAAU [salish99_ss1_r3_039] (puzzle: Same State 1) | 0.0432 µM | 0.248 µM | 0.507 µM | – | – | –
13 | AUAAAACAUGAGGAUCACCCAUGUCUACAAAGUCGAGGAUAUGGGCAAAUAAUAUAAGAACCAGAAGGCGAAUAAU [SS1 Teenbexe 1] (puzzle: Same State 1) | 0.0542 µM | 0.565 µM | 14.4 µM | – | – | –
14 | AUAAGGCAAGCUUUUUUCUCGUAGUGUAAACAUGAGGAUCACCCAUGUGCCCACCCUGGAUCUUUGGAUCCCAGAAC [Sobeedbeon] (puzzle: Sensor for hsa-mir-208a) | 0.023 µM | 0.0153 µM | 0.0224 µM | – | – | –
15 | AUAAGUUCGAUGCUCGUCUUUCCGUACAAACAUGAGGAUCACCCAUGUGAUCGGGAAGUAGCCCGAUCAGUAUGGCC [Leceen] (puzzle: Sensor for hsa-mir-208a) | 0.0306 µM | 0.0163 µM | 0.0275 µM | – | – | –
16 | AUAAUAAGGACAGGAUAUGGGAAAGGAAGUGUACUAGAAGGGUCGAGAAGACCAGAACAUGAGGAUCACCCAUGUGAUGGGAAA [PowerStrip SSNG 1.28] (Eterna round: R96, puzzle: Same State NG 1) | – | – | – | 0.0217 µM | 0.0233 µM | 0.0361 µM

Row | Sequence | apparent KD of MS2 coat protein [1] | apparent KD of MS2 coat protein [2] | apparent KD of MS2 coat protein [3] | apparent KD of MS2 coat protein (input ligand: FMN 200 uM) | apparent KD of MS2 coat protein [4] | apparent KD of MS2 coat protein (input ligand: none)
17 | AUAAUAAUAAGUGAGGAUAUGUUGAUAAAGACAUGAGGAUCACCCAUGUGAAAUAAAAUAAUAAUACAGAAGGCACAAUAAUAAA [JMF's solution 2] (puzzle: Same State 2) | 0.0256 µM | 0.0387 µM | 0.0279 µM | – | – | –
18 | AUACAUGAGGAUCACCCAUGUAAUUAAUUAAUUAAUAAGAUCUAGGAUAUCAGCUCGUUUAGAGCUGAGAAGGAGAUCACAUGU [SSNG3/21-B3] (Eterna round: R96, puzzle: Same State NG 3) | – | – | – | – | 0.0198 µM | –
19 | AUACCAUCGGGAGGAUAUGGCACCUUAUUGGUGCCAGAAGGUCUAACAUGAGGAUCACCCAUGUGGGAGUGGUCUAAUGACCAC [Eli NG1ss - 87] (Eterna round: R96, puzzle: Same State NG 1) | – | – | – | 0.144 µM | 0.127 µM | 0.186 µM
20 | AUACUCAUGUAAGGAUAUGCAGCCGAAACGGCUGCAGAAGGUACUAUAAUACAUGAGGAUCACCCAUGUCUCUAUUAUUUAGUU [Mat - Same State NG 1 - JL mod - D98] (Eterna round: R96, puzzle: Same State NG 1) | – | – | – | 0.0895 µM | 0.0465 µM | 0.101 µM
21 | AUAGUUUCCGAAGGAUAUGAUGAGGAUCACCCAUCAGAAGGUUGGCUAUUGGGUGGACAUGAGGAUCACCCAUGUCUUUCUGUU (Eterna round: R96, puzzle: Same State NG 1) | – | – | – | 0.0297 µM | 0.0391 µM | 0.0536 µM
22 | AUCCUACAUGAGGAUCACCCAUGUGACGCCUCAAUAGGAUAUCGGGCCCACAGUCAGGAACGAGAAGGAUUGAAGC [Digerier] (puzzle: Same State 1) | 0.0675 µM | 0.0293 µM | 0.0667 µM | – | – | –
23 | AUGGUGCAGGUACAGGAUAUGUUGCUCGUAACAUGAGGAUCACCCAUGUACCUAUGAGAUUAAAUGCAGAAGGGUGCACACCAAA [Mat - Same State 2 - Mod of UCT - D90] (Eterna round: R96, puzzle: Same State 2) | – | – | – | 0.0381 µM | 0.224 µM | 1.35 µM
24 | AUGGUGCAGGUACAGGAUAUGUUGCUCGUAACAUGAGGAUCACCCAUGUACCUAUGAGAUUAAAUGCAGAAGGGUGCACACCAAA [Mat - Same State 2 - Mod of UCT - D90] (puzzle: Same State 2) | 0.0397 µM | 0.507 µM | 0.707 µM | – | – | –
25 | AUUAAACAUGAGGAUCACCCAUGUCAUCAAAGUCGAGGAUAUGGGCAAAUAAAAUAAGAACCAGAAGGCGAAUAAU [salish99_ss1_r3_073] (puzzle: Same State 1) | 0.0696 µM | 0.122 µM | 0.269 µM | – | – | –
26 | AUUAAUAAUCUAGGAUAUCACGUCGUUUAGACGUGAGAAGGAGAUCAUAACAUGAGGAUCACCCAUGUAUUACAUGAAGUUAAU [SSNG1/7-B3] (Eterna round: R96, puzzle: Same State NG 1) | – | – | – | 0.0222 µM | 0.0278 µM | 0.0375 µM
27 | AUUAAUUAAUUAAUACAUGAGGAUCACCCAUGUAAUAAGAUCUAGGAUAUCAGCUCGAAUAGAGCUGAGAAGGAGAUCACAUGU [SSNG3/17-A1] (Eterna round: R96, puzzle: Same State NG 3) | – | – | – | – | 0.0311 µM | –
28 | AUUAAUUAAUUAAUACAUGAGGAUCACCCAUGUAAUAAGAUCUAGGAUAUCAGCUCGUUUAGAGCUGAGAAGGAGAUCACAUGU [SSNG3/17-A3] (Eterna round: R96, puzzle: Same State NG 3) | – | – | – | – | 0.0327 µM | –
29 | AUUAUUAAUAUAGGAUAUGUAAAACAUGAGGAUCACCCAUGUGAUAUCGUGAGUAAGGAGAGAGAACAGAAGGAUAAUUUUUUU [JMF's solution 1] (Eterna round: R96, puzzle: Same State NG 2) | – | – | – | 0.0381 µM | 0.0309 µM | 0.0413 µM
30 | AUUAUUAAUGCAGGAUAUGAUUAACAUGAGGAUCACCCAUGUGGUGUUGUGAGUAAGGAGAGUGAUCAGAAGGGCAUUUUUUGU [JMF's solution 16] (Eterna round: R96, puzzle: Same State NG 2) | – | – | – | 0.798 µM | 0.264 µM | 0.615 µM
31 | AUUGCUAGCACAGGAUAUCAUGCGAAAAUUGCGUGAGAAGGGUGGACACUGUCAUUCACGGAGGACAUGAGGAUCACCCAUGUC [SameState NG1 #79] (Eterna round: R96, puzzle: Same State NG 1) | – | – | – | 0.0771 µM | 0.059 µM | 0.0749 µM
32 | AUUGCUAGCGCAGGAUAUGAUGCGAAAAUUGCGUCAGAAGGGUGUAAUCUCUCAUUGCGGGAGGACAUGAGGAUCACCCAUGUC [SameState NG1 #84] (Eterna round: R96, puzzle: Same State NG 1) | – | – | – | – | 0.123 µM | –
